PMC4338043
Like-named read-outs stand apart in the source and are kept apart here.

What was measured:
Test in all cases: AUC
[1] = target: Bacillus anthracis inosine-5'-monophosphate dehydrogenase (Bacillus thuringiensis serovar monterrey BGSC 4AJ1 (sequence 100% identical to B. anthracis IMPDH))
[2] = target: Bacillus anthracis inosine-5'-monophosphate dehydrogenase (Bacillus thuringiensis serovar monterrey BGSC 4AJ1 (sequence 100% identical to B. anthracis IMPDH)); remark: listed apart in the source
[3] = target: Klebsiella pneumoniae inosine-5'-monophosphate dehydrogenase (Klebsiella pneumoniae strain 52145)
[4] = target: Klebsiella pneumoniae inosine-5'-monophosphate dehydrogenase (Klebsiella pneumoniae strain 52145); remark: listed apart in the source

Bacillus anthracis inosine-5'-monophosphate dehydrogenase (from UniProt A0A0K0Q667 1-487) (enzyme)
stoichiometry N [1]: 8
stoichiometry N [2]: 4

Klebsiella pneumoniae inosine-5'-monophosphate dehydrogenase (enzyme)
stoichiometry N [3]: 8
stoichiometry N [4]: 4
